Measured values from US20260241018A1 (BIOCYTOGEN PHARMACEUTICALS BEIJING, published 2026).

Tests used:
[1] = target: T1, human 5T4 expressed on CHO-S cells (CHO-h5T4 cells) (human, UniProt Q13641 32-355); assay: flow cytometry, CHO-h5T4 cells
T1 sequence: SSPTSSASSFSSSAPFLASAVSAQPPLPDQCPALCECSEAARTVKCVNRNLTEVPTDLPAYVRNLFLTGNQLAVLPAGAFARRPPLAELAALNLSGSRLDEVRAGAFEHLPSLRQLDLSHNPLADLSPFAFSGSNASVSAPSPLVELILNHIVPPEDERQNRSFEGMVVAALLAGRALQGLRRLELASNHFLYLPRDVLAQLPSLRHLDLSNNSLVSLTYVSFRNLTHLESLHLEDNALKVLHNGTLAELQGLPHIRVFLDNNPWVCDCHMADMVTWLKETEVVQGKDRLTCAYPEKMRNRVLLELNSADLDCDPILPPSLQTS
Experimental: (§1) CHO-h5T4 cells, CHO-m5T4 cells, CHO-fas5T4 cells or CHO-d5T4 cells were transferred to a 96-well plate at a density of 2×10⁵ cells/well respectively. The anti-5T4 antibodies were added to the 96-well plate, and incubated at 4° C. for 30 min. Then, the cells were incubated with the secondary antibody anti-hlgG-Fc-Alex Flour 647 (RL1-H) (Jackson ImmunoResearch Laboratories, Inc., Cat #: 109-606-170) at 4° C. in the dark for 15 minutes before flow cytometry analysis.

[2] = target: T2, mouse 5T4 expressed on CHO-S cells (CHO-m5T4 cells) (mouse, UniProt Q9Z0L0 32-361); assay: flow cytometry, CHO-m5T4 cells
T2 sequence: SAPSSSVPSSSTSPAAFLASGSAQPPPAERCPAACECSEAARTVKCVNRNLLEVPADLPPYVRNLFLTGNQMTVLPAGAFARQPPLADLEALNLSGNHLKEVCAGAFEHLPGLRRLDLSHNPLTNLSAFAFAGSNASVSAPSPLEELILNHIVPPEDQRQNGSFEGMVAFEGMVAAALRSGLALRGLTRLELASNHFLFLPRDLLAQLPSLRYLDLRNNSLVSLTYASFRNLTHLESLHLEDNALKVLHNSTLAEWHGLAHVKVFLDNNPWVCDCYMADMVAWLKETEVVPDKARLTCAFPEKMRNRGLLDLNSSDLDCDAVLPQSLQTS
Experimental: as §1

[3] = target: T3, His-tagged 5T4 protein of human (h5T4, ACRO Biosystems Inc., Cat #: TPG-H52E5) (human, UniProt Q13641 32-355); assay: SPR (Biacore 8K), antibody captured on Protein A chip, His-tagged 5T4 as analyte
T3 construct: Bought protein; not shown: His tag
T3 sequence (looked up): T1 sequence
Experimental: Purified anti-5T4 antibodies were diluted to 2 μg/mL and then injected into the Biacore™ 8K biosensor at 10 μL/min for about 50 seconds to achieve a desired protein density (e.g., about 50 response units (RU)). His-tagged 5T4 protein at a concentration of 200 nM was then injected at 30 μL/min for 180 seconds. Dissociation was monitored for 400 seconds. The chip was regenerated after the last injection of each titration with Glycine (pH 2.0), 30 μL/min for 30 seconds. For ISO control, an antibody targeting an irrelevant target protein was used.
As a person of ordinary skill in the art would understand, the same method with appropriate adjustments for parameters (e.g., antibody concentration) was performed for each tested antibody.

h5T4-His protein = target: T4, h5T4-His protein (human, UniProt Q13641 32-355, limits assumed); assay: epitope binding assay, h5T4-His captured; binder = analyte 2; competitor (analyte 1): 31G4
T4 construct: also called His-tagged human 5T4 protein; not shown: His tag
T4 sequence (looked up): T1 sequence
Experimental: Epitope binding assays were performed using ForteBio Octet system to determine whether two anti-5T4 antibodies target the same or overlapping epitopes. 1×HBS-EP+buffer (10 mM 4-(2-hydroxyethyl)-1-piperazineethanesulfonic acid (HEPES), 150 mM NaCl, 3 mM ethylenediaminetetraacetic acid (EDTA) and 0.05% P20, pH7.4) diluted from HBS-EP+buffer (10×) was used as the running buffer throughout the experiment. About 50 RU of h5T4-His protein was captured at a flow rate of 10 μL/min, and 200 nM of the tested antibody was injected at a flow rate of 30 μL/min to bind the ligand. Another comparison antibody was injected under the same conditions to determine whether the binding of different antibodies interfered with each other. The binding time was 180 s for each antibody.
The binding value of each antibody was obtained using Data Analysis HT 12.0. To quantify the interference of one antibody binding to another, a binding ratio was calculated to compare each pair of antibodies. The binding ratio is defined as the binding value of the second antibody (analyte 2), divided by the binding value of the first antibody (analyte 1). […] In general, antibody pairs that interfere with each other have the same or overlapping epitopes.

[4] = target: T5, 5T4 on NCI-H226 cells, NCI-H2030 cells and HCC827 cells (UniProt Q13641 32-420, limits assumed); assay: flow cytometry on NCI-H2030 cells, Alexa Fluor 647 anti-human IgG Fc secondary antibody, MFI
T5 construct: whole, on cells
T5 sequence (looked up): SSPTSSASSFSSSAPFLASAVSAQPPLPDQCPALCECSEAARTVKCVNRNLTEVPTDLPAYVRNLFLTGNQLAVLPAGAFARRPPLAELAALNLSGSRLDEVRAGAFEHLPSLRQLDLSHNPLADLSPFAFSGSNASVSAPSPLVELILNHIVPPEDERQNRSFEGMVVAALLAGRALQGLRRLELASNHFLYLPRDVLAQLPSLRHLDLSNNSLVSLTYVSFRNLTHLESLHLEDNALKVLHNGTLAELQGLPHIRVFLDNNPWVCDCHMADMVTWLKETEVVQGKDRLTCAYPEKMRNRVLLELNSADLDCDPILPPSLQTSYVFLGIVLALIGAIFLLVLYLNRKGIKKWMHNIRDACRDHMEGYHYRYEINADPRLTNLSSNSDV
Experimental: NCI-H226 cells, NCI-H2030 cells or HCC827 cells were plated in a 96-well plate at a density of 2×10⁵ cells/well. Serially diluted purified anti-5T4 antibody 32G1 or the positive control PF06263507 analog-SI (maximum concentration: 20 μg/mL, 2-fold dilutions, 12 gradients) were added to each well and were incubated at 4° C. for 30 minutes. Then, after one wash with PBS, the cells were incubated with the secondary antibody Alexa Fluor® 647 anti human IgG Fcγ (Jackson ImmunoResearch Laboratories, Inc., Cat #: 109-606-170) at 4° C. for 15 minutes before flow cytometry analysis.
The cells were collected, and the mean fluorescence intensity (MFI) was determined.

Percentage of Positive Cells [1]: 56.5% | Percentage of Positive Cells [2]: 27.1% | Kd [3]: 368 nM | koff [3]: 0.0249 s⁻¹ | kon [3]: 67700 M⁻¹ s⁻¹ | binding ratio (h5T4-His protein): 0.89 | EC50 (read off the curve) [4]: ~0.2 µg/mL
B1: 32G1 (antibody, V domains shown)
VH: QVQLVQSGGGLVKPGGSLRLSCVASGFTFSDYYMNWVRQAPGKGLEWISYVGTESIYTYYADTVKGRFTISRDNAKNSLYLQMNSLRAEDTALYYCARARDYNLYGMDVWGQGTTVTVSS
VL: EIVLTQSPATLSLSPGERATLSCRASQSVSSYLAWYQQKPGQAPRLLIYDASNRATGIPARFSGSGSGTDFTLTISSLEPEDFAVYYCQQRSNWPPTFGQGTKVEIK
notes: also called anti-5T4 antibody 32G1
